Data on one substance can be found in patent publication EP2488198B1.

The target in the experiment is constitutively activated LFA-1 expressed at a high level on a Jurkat T-lymphocyte cell line (human) (UniProt P20701). Kind of experiment: cell-based or functional assay.
Chain of constitutively activated LFA-1 expressed at a high level on a Jurkat T-lymphocyte cell line (human) (P20701 26-1170, chain 1 of 2): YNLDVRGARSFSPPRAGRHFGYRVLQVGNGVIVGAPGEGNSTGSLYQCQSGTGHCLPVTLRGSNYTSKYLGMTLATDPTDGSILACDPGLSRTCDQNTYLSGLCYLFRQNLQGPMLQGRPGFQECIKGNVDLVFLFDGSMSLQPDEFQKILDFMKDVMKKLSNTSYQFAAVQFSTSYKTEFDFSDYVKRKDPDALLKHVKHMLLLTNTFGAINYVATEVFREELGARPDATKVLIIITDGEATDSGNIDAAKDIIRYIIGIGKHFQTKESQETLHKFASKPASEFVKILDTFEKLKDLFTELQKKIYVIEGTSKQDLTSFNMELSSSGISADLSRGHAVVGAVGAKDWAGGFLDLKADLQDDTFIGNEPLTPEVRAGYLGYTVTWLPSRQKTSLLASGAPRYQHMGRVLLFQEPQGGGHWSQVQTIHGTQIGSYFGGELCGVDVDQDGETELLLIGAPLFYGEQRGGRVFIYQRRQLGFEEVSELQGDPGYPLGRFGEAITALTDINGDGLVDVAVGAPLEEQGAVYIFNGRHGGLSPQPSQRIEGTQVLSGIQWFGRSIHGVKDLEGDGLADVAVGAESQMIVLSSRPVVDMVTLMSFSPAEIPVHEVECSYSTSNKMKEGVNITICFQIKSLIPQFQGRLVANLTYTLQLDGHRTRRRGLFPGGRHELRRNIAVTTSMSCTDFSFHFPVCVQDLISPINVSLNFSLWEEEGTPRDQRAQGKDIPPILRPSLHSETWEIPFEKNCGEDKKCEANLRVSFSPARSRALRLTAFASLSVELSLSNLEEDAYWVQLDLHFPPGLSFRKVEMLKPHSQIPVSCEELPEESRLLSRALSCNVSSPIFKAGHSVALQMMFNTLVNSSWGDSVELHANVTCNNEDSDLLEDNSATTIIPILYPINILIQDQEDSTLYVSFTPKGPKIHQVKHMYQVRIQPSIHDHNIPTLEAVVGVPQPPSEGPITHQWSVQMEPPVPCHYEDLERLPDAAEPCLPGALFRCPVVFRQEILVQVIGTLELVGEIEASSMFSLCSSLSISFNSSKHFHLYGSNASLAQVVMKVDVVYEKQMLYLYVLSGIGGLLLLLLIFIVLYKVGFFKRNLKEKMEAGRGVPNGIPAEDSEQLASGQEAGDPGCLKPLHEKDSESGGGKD
Chain of constitutively activated LFA-1 expressed at a high level on a Jurkat T-lymphocyte cell line (human) (P05107 23-769, chain 2 of 2, further chain): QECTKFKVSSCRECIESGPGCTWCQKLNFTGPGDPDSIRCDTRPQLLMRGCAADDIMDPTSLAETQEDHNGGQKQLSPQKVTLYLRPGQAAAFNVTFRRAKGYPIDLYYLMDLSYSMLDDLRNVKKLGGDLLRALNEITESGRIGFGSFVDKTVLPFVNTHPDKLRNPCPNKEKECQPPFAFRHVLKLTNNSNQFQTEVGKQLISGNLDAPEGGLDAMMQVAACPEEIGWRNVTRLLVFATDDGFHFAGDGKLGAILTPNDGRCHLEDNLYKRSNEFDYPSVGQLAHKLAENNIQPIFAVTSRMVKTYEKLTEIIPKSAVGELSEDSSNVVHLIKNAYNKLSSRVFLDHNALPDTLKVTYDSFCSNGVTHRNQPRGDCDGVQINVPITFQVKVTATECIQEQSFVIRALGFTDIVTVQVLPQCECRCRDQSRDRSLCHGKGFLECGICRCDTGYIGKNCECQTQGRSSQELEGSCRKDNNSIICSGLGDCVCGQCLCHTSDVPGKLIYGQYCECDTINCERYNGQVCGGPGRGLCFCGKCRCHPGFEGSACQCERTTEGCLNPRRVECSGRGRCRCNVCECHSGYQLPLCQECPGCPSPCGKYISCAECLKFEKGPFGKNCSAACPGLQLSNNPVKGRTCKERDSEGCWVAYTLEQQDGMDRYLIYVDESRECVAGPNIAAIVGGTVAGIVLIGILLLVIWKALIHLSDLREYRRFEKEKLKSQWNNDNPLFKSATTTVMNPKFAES

For the substance “Leukotoxin (LtxA) of Aggregatibacter actinomycetemcomitans strain NJ4500 (from UniProt P16462 1-1055)”, the sensitivity to LtxA-mediated toxicity was 10 times.
